In patent publication US20220010021A1 (Sanofi, published 2022) one finds EC50 and Emax data, which are given here for 20 molecules.

The assay addresses human FGFR1c + KLB receptor complex on HEK293 iLite FGF21 reporter cells (human, UniProt P11362 22-822; Q86Z14 1-1044). Kind of assay: cell-based or functional assay.

Sequence of human FGFR1c + KLB receptor complex on HEK293 iLite FGF21 reporter cells (P11362 22-822, chain 1 of 2): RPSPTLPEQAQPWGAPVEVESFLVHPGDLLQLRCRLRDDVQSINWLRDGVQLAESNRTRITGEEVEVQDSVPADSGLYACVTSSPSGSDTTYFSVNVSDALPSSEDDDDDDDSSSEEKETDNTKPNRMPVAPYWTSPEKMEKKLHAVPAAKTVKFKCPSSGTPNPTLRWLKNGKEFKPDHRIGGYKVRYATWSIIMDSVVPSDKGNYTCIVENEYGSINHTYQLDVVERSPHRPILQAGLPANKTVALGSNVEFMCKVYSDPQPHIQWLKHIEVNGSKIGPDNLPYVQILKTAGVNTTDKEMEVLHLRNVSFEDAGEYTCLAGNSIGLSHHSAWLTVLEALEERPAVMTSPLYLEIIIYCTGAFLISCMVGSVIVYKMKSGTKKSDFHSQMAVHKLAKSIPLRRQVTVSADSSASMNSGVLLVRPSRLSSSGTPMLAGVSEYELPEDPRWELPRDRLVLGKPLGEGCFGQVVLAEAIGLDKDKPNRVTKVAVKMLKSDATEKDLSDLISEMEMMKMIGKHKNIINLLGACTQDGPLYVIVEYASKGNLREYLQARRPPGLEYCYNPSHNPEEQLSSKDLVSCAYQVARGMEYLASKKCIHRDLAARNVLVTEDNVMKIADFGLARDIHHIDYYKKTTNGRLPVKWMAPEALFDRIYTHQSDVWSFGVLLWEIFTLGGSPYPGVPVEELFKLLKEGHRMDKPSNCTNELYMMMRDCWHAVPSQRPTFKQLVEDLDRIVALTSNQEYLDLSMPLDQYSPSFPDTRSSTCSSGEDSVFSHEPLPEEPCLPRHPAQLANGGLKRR
Sequence of human FGFR1c + KLB receptor complex on HEK293 iLite FGF21 reporter cells (Q86Z14 whole entry, chain 2 of 2): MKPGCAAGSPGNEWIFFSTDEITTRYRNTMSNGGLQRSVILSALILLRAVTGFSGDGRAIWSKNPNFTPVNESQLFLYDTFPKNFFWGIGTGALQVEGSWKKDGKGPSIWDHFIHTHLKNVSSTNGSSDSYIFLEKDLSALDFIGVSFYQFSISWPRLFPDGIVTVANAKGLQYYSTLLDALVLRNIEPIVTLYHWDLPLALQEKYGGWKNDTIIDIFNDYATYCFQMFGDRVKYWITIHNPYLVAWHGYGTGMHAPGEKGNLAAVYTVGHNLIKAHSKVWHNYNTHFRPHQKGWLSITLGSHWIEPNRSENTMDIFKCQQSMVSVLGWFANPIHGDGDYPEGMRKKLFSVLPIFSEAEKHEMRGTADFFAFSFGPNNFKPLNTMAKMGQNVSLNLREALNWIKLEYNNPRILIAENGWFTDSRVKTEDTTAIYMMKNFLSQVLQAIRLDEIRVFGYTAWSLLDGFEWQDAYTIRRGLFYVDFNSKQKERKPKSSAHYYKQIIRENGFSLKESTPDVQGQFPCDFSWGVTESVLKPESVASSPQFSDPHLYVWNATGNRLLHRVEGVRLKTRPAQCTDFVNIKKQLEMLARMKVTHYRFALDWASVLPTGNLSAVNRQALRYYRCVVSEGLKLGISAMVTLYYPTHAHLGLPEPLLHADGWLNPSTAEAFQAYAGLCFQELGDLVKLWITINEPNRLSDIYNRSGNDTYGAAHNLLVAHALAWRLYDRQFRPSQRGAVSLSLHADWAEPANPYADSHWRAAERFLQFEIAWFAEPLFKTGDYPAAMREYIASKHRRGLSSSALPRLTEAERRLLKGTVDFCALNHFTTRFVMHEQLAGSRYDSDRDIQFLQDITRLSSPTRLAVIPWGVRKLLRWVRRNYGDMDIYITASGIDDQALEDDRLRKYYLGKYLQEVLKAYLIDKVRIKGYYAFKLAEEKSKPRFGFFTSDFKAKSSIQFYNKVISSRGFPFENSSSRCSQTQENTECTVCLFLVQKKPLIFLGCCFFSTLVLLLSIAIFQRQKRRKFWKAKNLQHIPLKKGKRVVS

B1: Ab0304 (antibody, IgG4, V domains shown)
VH: QVTLKESGPVLVKPTETLTLTCTVSGFSLNNARVGVSWIRQPPGKALEWLAHIFSNDEKSYSTSLKSRLTISKDTSKSQVVLTMTNMDPVDTATYYCARSVVTGGYYYEGMDVWGQGTTVTVSS
VL: SYVLTQPPSVSVAPGQTARITCGGNNIGSESVHWYQQKPGQAPVLVVYYESDRPSGIPERFSGSNSGNTATLTISRVEAGDEADYYCQVWTGNSDHVVFGGGTKLTVLG
For B1, the EC50 was determined as 11.4 nM and the Emax turned out to be 686%.

B2: Ab0316 (antibody, IgG4, V domains shown)
VH: QVTLKESGPVLVKPTETLTLTCTVSGFSLNNARVGVSWIRQPPGKALEWLAHIFSNDEKSYSTSLKSRLTISKDTSKSQVVLTMTNMDPVDTATYYCARSVVTGGYYYEGMDVWGQGTTVTVSS
VL: SYVLTQPPSVSVAPGQTARITCGGSNIGSESVHWYQQKPGQAPVLVVYYDSDRPSGIPERFSGSNSGNTATLTISRVEAGDEADYYCQVWTGESDHVVFGGGTKLTVLG
For the molecule B2, the EC50 is 0.45 nM and the Emax came out at 730%.

B3: Ab0319 (antibody, IgG4, V domains shown)
VH: QVTLKESGPVLVKPTETLTLTCTVSGFSLNNARVGVSWIRQPPGKALEWLAHIFSNDEKSYSTSLKSRLTISKDTSKSQVVLTMTNMDPVDTATYYCARSVVTGGYYYEGMDVWGQGTTVTVSS
VL: SYVLTQPPSVSVAPGQTARITCGGNNIGSESVHWYQQKPGQAPVLVVYYESDRPSGIPERFSGSNSGNTATLTISRVEAGDEADYYCQVWTGESDHVVFGGGTKLTVLG
B3: the EC50 came to 0.3 nM and the Emax was 698%.

B4: Ab0315 (antibody, IgG4, V domains shown)
VH: QVTLKESGPVLVKPTETLTLTCTVSGFSLNNARVGVSWIRQPPGKALEWLAHIFSNDEKSYSTSLKSRLTISKDTSKSQVVLTMTNMDPVDTATYYCARSVVTGGYYYEGMDVWGQGTTVTVSS
VL: SYVLTQPPSVSVAPGQTARITCGGNNIGSESVHWYQQKPGQAPVLVVYYDSDRPSGIPERFSGSNSGNTATLTISRVEAGDEADYYCQVWTGESDHVVFGGGTKLTVLG
As to B4, the EC50 stood at 0.37 nM and the Emax was found to be 806%.

B5: Ab0395 (antibody, IgG4, V domains shown)
VH: QVTLKESGPVLVKPTETLTLTCTVSGFSLNNARVGVSWIRQPPGKALEWLAHIWSNDEKSYSTSLKSRLTISKDTSKSQVVLTMTNMDPVDTATYYCARSVVTGGYYYEGMDVWGQGTTVTVSS
VL: SYVLTQPPSVSVAPGQTARITCGGNNIGSESVHWYQQKPGQAPVLVVDDSDRPSGIPERFSGSNSGNTATLTISRVEAGDEADYYCQVFDGNSAHVVFGGGTKLTVLG
For B5, the EC50 is > 100 nM.

B6: Ab0305 (antibody, IgG4, V domains shown)
VH: QVTLKESGPVLVKPTETLTLTCTVSGFSLNNARVGVSWIRQPPGKALEWLAHIFSNDEKSYSTSLKSRLTISKDTSKSQVVLTMTNMDPVDTATYYCARSVVTGGYYYEGMDVWGQGTTVTVSS
VL: SYVLTQPPSVSVAPGQTARITCGGSNIGSESVHWYQQKPGQAPVLVVYYESDRPSGIPERFSGSNSGNTATLTISRVEAGDEADYYCQVWTGNSDHVVFGGGTKLTVLG
For B6, the EC50 is 208 nM and the Emax amounted to 647%.

B7: Ab0320 (antibody, IgG4, V domains shown)
VH: QVTLKESGPVLVKPTETLTLTCTVSGFSLNNARVGVSWIRQPPGKALEWLAHIFSNDEKSYSTSLKSRLTISKDTSKSQVVLTMTNMDPVDTATYYCARSVVTGGYYYEGMDVWGQGTTVTVSS
VL: SYVLTQPPSVSVAPGQTARITCGGSNIGSESVHWYQQKPGQAPVLVVYYESDRPSGIPERFSGSNSGNTATLTISRVEAGDEADYYCQVWTGESDHVVFGGGTKLTVLG
With B7, the EC50 came to 1.29 nM and the Emax was determined as 699%.

B8: Ab0318 (antibody, IgG4, V domains shown)
VH: QVTLKESGPVLVKPTETLTLTCTVSGFSLNNARVGVSWIRQPPGKALEWLAHIFSNDEKSYSTSLKSRLTISKDTSKSQVVLTMTNMDPVDTATYYCARSVVTGGYYYEGMDVWGQGTTVTVSS
VL: SYVLTQPPSVSVAPGQTARITCGGSNIGSESVHWYQQKPGQAPVLVVYDESDRPSGIPERFSGSNSGNTATLTISRVEAGDEADYYCQVWTGESDHVVFGGGTKLTVLG
For the molecule B8, the EC50 came to 0.3 nM and the Emax stood at 817%.

B9: Ab0317 (antibody, IgG4, V domains shown)
VH: QVTLKESGPVLVKPTETLTLTCTVSGFSLNNARVGVSWIRQPPGKALEWLAHIFSNDEKSYSTSLKSRLTISKDTSKSQVVLTMTNMDPVDTATYYCARSVVTGGYYYEGMDVWGQGTTVTVSS
VL: SYVLTQPPSVSVAPGQTARITCGGNNIGSESVHWYQQKPGQAPVLVVYDESDRPSGIPERFSGSNSGNTATLTISRVEAGDEADYYCQVWTGESDHVVFGGGTKLTVLG
As to B9, the EC50 was found to be 0.17 nM and the Emax worked out at 968%.

B10: Ab0375 (antibody, IgG4, V domains shown)
VH: QVTLKESGPVLVKPTETLTLTCTVSGFSLNNARVGVSWIRQPPGKALEWLAHIWSNDEKSYSTSLKSRLTISKDTSKSQVVLTMTNMDPVDTATYYCARSVVTGGYYYEGMDVWGQGTTVTVSS
VL: CYVLTQPPSVSVAPGQTARITCGGNNIGSESVHWYQQKPGQAPVLVVDDSDRPSGIPERFSGSNSGNTATLTISRVEAGDEADYYCQVFDGNCEHVVFGGGTKLTVLG
Turning to B10, the 50% effective concentration (EC50) was > 100 nM.

B11: Ab0380 (antibody, IgG4, V domains shown)
VH: QVTLKESGPVLVKPTETLTLTCTVSGFSLNNARVGVSWIRQPPGKALEWLASIWSNDEKSYSTSLKSRLTISKDTSKSQVVLTMTNMDPVDTATYYCARSVVTGGYYYEGMDVWGQGTTVTVSS
VL: CYVLTQPPSVSVAPGQTARITCGGNNIGSESVHWYQQKPGQAPVLVVDDSDRPSGIPERFSGSNSGNTATLTISRVEAGDEADYYCQVFDGNCVHVVFGGGTKLTVLG
For the molecule B11, the EC50 is > 100 nM.

B12: Ab0377 (antibody, IgG4, V domains shown)
VH: QVTLKESGPVLVKPTETLTLTCTVSGFSLNNARVGVSWIRQPPGKALEWLAHIWSNDEKSYSTSLKSRLTISKDTSKSQVVLTMTNMDPVDTATYYCARSVVTGGYYYEGMDVWGQGTTVTVSS
VL: SYVLTQPPSVSVAPGQTARITCGGNNIGSESVHWYQQKPGQAPVLVVDDSDRPSGIPERFSGSNSGNTATLTISRVEAGDEADYYCQVFDGNSVHVVFGGGTKLTVLG
Regarding B12, the EC50 is > 100 nM.

B13: Ab0379 (antibody, IgG4, V domains shown)
VH: QVTLKESGPVLVKPTETLTLTCTVSGFSLNNARVGVSWIRQPPGKALEWLAHIWSNDEKSYSTSLKSRLTISKDTSKSQVVLTMTNMDPVDTATYYCARSVVTGGYYYEGMDVWGQGTTVTVSS
VL: CYVLTQPPSVSVAPGQTARITCGGNNIGSESVHWYQQKPGQAPVLVVDDSDRPSGIPERFSGSNSGNTATLTISRVEAGDEADYYCQVFDGNCVHVVFGGGTKLTVLG
Turning to B13, the EC50 is > 100 nM and the Emax came to 171%.

B14: Ab0373 (antibody, IgG4, V domains shown)
VH: QVTLKESGPVLVKPTETLTLTCTVSGFSLNNARVGVSWIRQPPGKALEWLAWIFSNDEKSYSTSLKSRLTISKDTSKSQVVLTMTNMDPVDTATYYCARSVVTGGYYYEGMDVWGQGTTVTVSS
VL: SYVLTQPPSVSVAPGQTARITCGGNNIGSESVHWYQQKPGQAPVLVVDDSDRPSGIPERFSGSNSGNTATLTISRVEAGDEADYYCQVHDGNCECVVFGGGTKLTVLG
For the molecule B14, the EC50 is > 100 nM.

B15: Ab0374 (antibody, IgG4, V domains shown)
VH: QVTLKESGPVLVKPTETLTLTCTVSGFSLNNARVGVSWIRQPPGKALEWLAHIWSNDEKSYSTSLKSRLTISKDTSKSQVVLTMTNMDPVDTATYYCARSVVTGGYYYEGMDVWGQGTTVTVSS
VL: SYVLTQPPSVSVAPGQTARITCGGNNIGSESVHWYQQKPGQAPVLVVDDSDRPSGIPERFSGSNSGNTATLTISRVEAGDEADYYCQVFDGNSEHVVFGGGTKLTVLG
In the case of B15, the EC50 was > 100 nM.

B16: Ab0378 (antibody, IgG4, V domains shown)
VH: QVTLKESGPVLVKPTETLTLTCTVSGFSLNNARVGVSWIRQPPGKALEWLASIWSNDEKSYSTSLKSRLTISKDTSKSQVVLTMTNMDPVDTATYYCARSVVTGGYYYEGMDVWGQGTTVTVSS
VL: SYVLTQPPSVSVAPGQTARITCGGNNIGSESVHWYQQKPGQAPVLVVDDSDRPSGIPERFSGSNSGNTATLTISRVEAGDEADYYCQVFDGNSVHVVFGGGTKLTVLG
Consider B16, for which the EC50 was > 100 nM.

B17: Ab0381 (antibody, IgG4, V domains shown)
VH: QVTLKESGPVLVKPTETLTLTCTVSGFSLNNARVGVSWIRQPPGKALEWLAHIWSNDEKSYSTSLKSRLTISKDTSKSQVVLTMTNMDPVDTATYYCARSVVTGGYYYEGMDVWGQGTTVTVSS
VL: SYVLTQPPSVSVAPGQTARITCGGNNIGSESVHWYQQKPGQAPVLVVDDSDRPSGIPERFSGSNSGNTATLTISRVEAGDEADYYCQVFDGNCVCVVFGGGTKLTVLG
Consider B17, for which the EC50 was > 100 nM.

B18: Ab0371 (antibody, IgG4, V domains shown)
VH: QVTLKESGPVLVKPTETLTLTCTVSGFSLNNARVGVSWIRQPPGKALEWLAWIFSNDEKSYSTSLKSRLTISKDTSKSQVVLTMTNMDPVDTATYYCARSVVTGGYYYEGMDVWGQGTTVTVSS
VL: SYVLTQPPSVSVAPGQTARITCGGNNIGSESVHWYQQKPGQAPVLVVDDSDRPSGIPERFSGSNSGNTATLTISRVEAGDEADYYCQVHDGNSEHVVFGGGTKLTVLG
Take B18: the EC50 was > 100 nM.

B19: Ab0376 (antibody, IgG4, V domains shown)
VH: QVTLKESGPVLVKPTETLTLTCTVSGFSLNNARVGVSWIRQPPGKALEWLAHIWSNDEKSYSTSLKSRLTISKDTSKSQVVLTMTNMDPVDTATYYCARSVVTGGYYYEGMDVWGQGTTVTVSS
VL: SYVLTQPPSVSVAPGQTARITCGGNNIGSESVHWYQQKPGQAPVLVVDDSDRPSGIPERFSGSNSGNTATLTISRVEAGDEADYYCQVFDGNCECVVFGGGTKLTVLG
Regarding B19, the EC50 is > 100 nM.

B20: Ab0372 (antibody, IgG4, V domains shown)
VH: QVTLKESGPVLVKPTETLTLTCTVSGFSLNNARVGVSWIRQPPGKALEWLAWIFSNDEKSYSTSLKSRLTISKDTSKSQVVLTMTNMDPVDTATYYCARSVVTGGYYYEGMDVWGQGTTVTVSS
VL: CYVLTQPPSVSVAPGQTARITCGGNNIGSESVHWYQQKPGQAPVLVVDDSDRPSGIPERFSGSNSGNTATLTISRVEAGDEADYYCQVHDGNCEHVVFGGGTKLTVLG
Take B20: the EC50 was > 100 nM.
